Test results reported in PMC9063846 (Acta Crystallographica. Section D, Structural Biology, 2022).

Target: the molecule itself
Assay: SEC-MALS; SEC-MALLS; Superdex 200 Increase 10/300 GL; 100 µl injected at 2 mg/ml; 20 mM HEPES, 200 mM NaCl pH 7.4; room temperature (20 ± 2 °C)

B1: Phocaeicola vulgatus sialic acid 9-O-acetylesterase (PvSAE), His6-tagged (enzyme)
chain: ERKYSTFYEQRATLFEELPVTSKDIIFLGNSITNGCEWAELFQNKNVKNRGISGDICMGVYDRLDPIVKGKPAKIFLLIGINDVSRGTSADKIISEISMIVRKIKQESPKTKLYLQSVLPVNDCYGMFNGHTSRWQVVKQINDLLEPLAVKEGVAYIDLYSHFVEKETGKMNPVYTNDGLHLLGKGYLLWRDIVKPYVDQK
notes: Sialic acid 9-O-acetylesterase PvSAE (BVU4141) of Phocaeicola vulgatus, GenBank ABR41743.1, without its signal peptide; the text says that the signal peptide is predicted to be cut between residues 19 and 20; Homodimer by SEC-MALLS and in both crystal forms; also called His6-PvSAE; P. vulgatus 9-O-acetylsialic acid esterase
stoichiometry N: 2
